In assay [1] the target is T1, human Gal3 protein (recombinant human Galectin-3) (human, UniProt P17931 2-250).
T1 construct: also called hGal3; hGAL3
The assay can be described thus: BLI binding activity, accelerated stability 25°C/60% RH, 0 months.

Assay [2] concerns the target T1, human Gal3 protein (recombinant human …). The assay can be described thus: ELISA blocking assay (blocked partner not stated), in-use stability bag #2, 1 h.
Assay [3] has the same target. Kind of assay: ELISA blocking assay (blocked partner not stated), in-use stability bag #1, 1 h.
Assay [4] has the same target. Kind of assay: ELISA blocking assay (blocked partner not stated), in-use stability bag #1, 0 h; Bag #1, 0 h.
Assay [5] shares this target. The assay can be described thus: ELISA biological activity, accelerated stability 25°C/60% RH, 1 month.
The target is the same in assay [6]. The assay can be described thus: method not stated (FIG. 20).
Another assay addresses mouse Gal3 (mouse, UniProt P16110 2-264). The assay can be described thus: method not stated (FIG. 20).
For assay [7], the target named is T1, human Gal3 protein (recombinant human …). Kind of assay: BLI binding activity, long-term stability 5°C, 1 month.
Assay [8] shares this target. Kind of assay: ELISA biological activity, accelerated stability 25°C/60% RH, 0 months.
For assay [9] the target is unchanged. Kind of assay: ELISA blocking assay (blocked partner not stated), in-use stability bag #1, 4 h.
Assay [10] shares this target. Kind of assay: BLI binding activity, accelerated stability 25°C/60% RH, 1 month.
Assay [11] concerns the target T2, Recombinant human Gal3 (rhGal3) (TrueBinding, #QC200361) (human, UniProt P17931 2-250). Kind of assay: cell-based or functional assay.
Assay [12] has as its target T1, human Gal3 protein (recombinant human …). The assay can be described thus: ELISA blocking assay (blocked partner not stated), in-use stability bag #2, 0.5 h.
Assay [13] shares this target. The assay can be described thus: BLI binding activity, long-term stability 5°C, 3 months.
Assay [14] shares this target. Kind of assay: ELISA blocking assay (blocked partner not stated), in-use stability bag #1, 0.5 h.
For assay [15] the target is unchanged. Kind of assay: ELISA biological activity, accelerated stability 25°C/60% RH, 3 months.
The target is the same in assay [16]. The assay can be described thus: ELISA biological activity, long-term stability 5°C, 3 months.
The target is the same in assay [17]. Kind of assay: ELISA blocking assay (blocked partner not stated), in-use stability bag #1, 2 h.
Assay [18] has the same target. Kind of assay: ELISA biological activity, long-term stability 5°C, 1 month.
Assay [19] has the same target. The assay can be described thus: ELISA biological activity, long-term stability 5°C, 0 months; 5° C., 0 months.
Assay [20] has the same target. Kind of assay: BLI binding activity, long-term stability 5°C, 0 months.
For assay [21] the target is unchanged. Kind of assay: ELISA blocking assay (blocked partner not stated), in-use stability bag #2, 4 h.
Assay [22] shares this target. Kind of assay: ELISA blocking assay (blocked partner not stated), in-use stability bag #2, 2 h.
For assay [23] the target is unchanged. The assay can be described thus: ELISA blocking assay (blocked partner not stated), in-use stability bag #2, 0 h.
For assay [24] the target is unchanged. Kind of assay: BLI binding activity, accelerated stability 25°C/60% RH, 3 months.
In assay [25] the target is T2, Recombinant human Gal3 (rhGal3) …. The assay can be described thus: cell-based or functional assay. The source holds these as a separate data set.
The target in assay [26] is T1, human Gal3 protein (recombinant human …). Kind of assay: ELISA, hGal3 coated, receptor in solution.

T1 sequence (P17931 2-250 limits assumed): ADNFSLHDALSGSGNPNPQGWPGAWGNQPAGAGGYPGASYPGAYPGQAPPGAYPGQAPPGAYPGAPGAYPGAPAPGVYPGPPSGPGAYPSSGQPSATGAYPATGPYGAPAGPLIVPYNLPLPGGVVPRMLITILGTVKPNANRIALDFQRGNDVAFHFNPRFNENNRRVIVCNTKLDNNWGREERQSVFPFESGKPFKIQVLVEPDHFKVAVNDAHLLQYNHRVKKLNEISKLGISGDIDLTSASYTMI
Sequence of mouse Gal3 (P16110 2-264 limits assumed): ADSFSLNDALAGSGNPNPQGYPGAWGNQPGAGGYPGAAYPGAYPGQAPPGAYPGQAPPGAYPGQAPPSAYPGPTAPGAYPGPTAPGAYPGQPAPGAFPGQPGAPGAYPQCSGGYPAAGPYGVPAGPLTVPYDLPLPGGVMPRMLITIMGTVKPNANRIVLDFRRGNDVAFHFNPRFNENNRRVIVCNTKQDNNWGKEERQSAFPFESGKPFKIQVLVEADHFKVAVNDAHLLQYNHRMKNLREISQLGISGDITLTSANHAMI

B1: TB006 (antibody, human IgG4 S228P, kappa, V domains shown)
VH: QVQLVQSGAEVKKPGASVKVSCKASGYSFTNYYMHWVRQAPGQRLEWMGWIYPGSGNTNYNEKFQGRVTITADTSASTAYMELSSLRSEDTAVYYCSTAPGGFDVWGQGTTVTVSS
VL: DIVMTQTPLSLSVTPGQPASISCKSSKSLLHSDGITYLYWYLQKPGQSPQLLIYRMSNLASGVPDRFSGSGSGTDFTLKISRVEAEDVGVYYCAQMLEFPLTFGQGTKLEIKR
notes: also called 4A11.H3L1; IMT006a
Regarding B1, the Kd came out at 3 nM in [1]; 8.9 nM in assay [6]; 40000 nM with mouse Gal3; 2.5 nM in assay [7]; 2.5 nM in assay [10]; 3 nM in assay [13]. Besides, the results for the Kd in [20] and in [24] were 3 nM and 3.1 nM, respectively. Moreover, the IC50 in assay [2] was 1.63 µg/mL; in assay [3] it was 1.43 µg/mL; in assay [4], 1.01 µg/mL; in [5], 1.8 µg/mL; in assay [8], 2.5 µg/mL; in assay [9], 1.41 µg/mL. The IC50 in assay [12] turned out to be 1.66 µg/mL; in assay [14] it was 1.34 µg/mL; in [15], 1.5 µg/mL; in assay [16] it was 1.5 µg/mL; in [17] it was 1.71 µg/mL; in [18], 1.8 µg/mL. Besides, the IC50 in assay [19] is 2.5 µg/mL; in assay [21] it was 1.35 µg/mL; in assay [22] it was 1.67 µg/mL; in assay [23] it was 1.05 µg/mL. Besides, the “% inhibition of CD62L shedding” value in assay [11] amounted to 76.1%. In assay [25], the “IC50 of blocking IL-6 secretion by HL60-derived neutrophils (rhGal3 + LPS)” value stood at 33.7 nM. Also, the “IC50 of blocking TNFα secretion by HL60-derived neutrophils (rhGal3 + LPS)” value in assay [25] amounted to 11.1 nM.

B2: recombinant human CD147, 6xHis-tagged (R&D Systems, 972-EMN) (receptor, not shown: small tags and cut ends)
chain: AAGTVFTTVEDLGSKILLTCSLNDSATEVTGHRWLKGGVVLKEDALPGQKTEFKVDSDDQWGEYSCVFLPEPMGTANIQLHGPPRVKAVKSSEHINEGETAMLVCKSESVPPVTDWAWYKITDSEDKALMNGSESRFFVSSSQGRSELHIENLNMEADPGQYRCNGTSSKGSDQAIITLRVRSHLAAL
notes: also called hCD147; EMMPRIN
For the molecule B2, the binding result in assay [26] is “binds”.

For the origin of these results see patent US20250243282A1 (TRUEBINDING, published 2025).
